Assay [1] deals with T1, H2B-mCherry-127D01 (127D01 tag, identical to a stretch of …, UniProt P25025).
T1 chain: SFEDFWKGED
The experiment in a line: far-Western, overlay or dot blot.

For assay [2], the target named is T2, VHH05-REPTOR-127D01 (VHH05 and 127D01 tags (human UBE2J1 and …, UniProt Q9Y385;P25025)).
T2 chain 1: QADQEAKELARQIS
T2 chain 2: SFEDFWKGED
Briefly: immunostaining of cells or tissue.

Assay [3] deals with T3, H2B-mCherry-VHH05 (VHH05 tag, identical to a stretch of …, UniProt Q9Y385).
T3 chain: QADQEAKELARQIS
Briefly: far-Western, overlay or dot blot.

Consider three molecules from article PMC9811555 (Current protocols, 2022).

B1: Nb127D01-HA-His (VHH)
VHH: EVQLVESGGGLVQAGESLRLSCAASGSTFDFKVMGWYRQPPGKQREGVAAIRLSGNMHYAESVKGRFAISKANAKNTVYLQMNSLRPEDTAVYYCKVNIRGQDYWGQGTQVTVSS
Take B1: the binding result in assay [1] is recorded as “binds”.

B2: Nb127D01-ALFA-His (VHH)
VHH: B1 VHH
As to B2, in assay [2], the binding result is listed as “binds”.

B3: NbVHH05-HA-His (VHH)
VHH: QVQLQESGGGLVQPGGSLRLSCAASGFVFENSAMAWYRQAPGKERELIAVIGTTFIKLAESVKGRFTISRDNAKSTVYLQMNNLKPEDTAVYYCSKSGAYWGQGTQVTVSS
Turning to B3, the binding result in assay [2] and in assay [3] was “binds” in each case.
